From patent publication US20200115416A1 (REGENTS OF THE UNIVERSITY OF MINNESOTA, published 2020)
Read-outs that look alike come from different tables or passages of the source. Square brackets hold non-standard residues; d marks the D form. hPhe = N[C@@H](CCc1ccccc1)C(=O)O; Nle = CCCC[C@H](N)C(=O)O

How the values were obtained:
[1] = molecular target: T1, mouse melanocortin-1 receptor (mouse, UniProt Q01727 1-315); assay: cell-based or functional assay
[2] = molecular target: T2, mouse melanocortin-5 receptor (mouse, UniProt P41149 1-325); assay: cell-based or functional assay
T2 sequence (P41149 whole entry): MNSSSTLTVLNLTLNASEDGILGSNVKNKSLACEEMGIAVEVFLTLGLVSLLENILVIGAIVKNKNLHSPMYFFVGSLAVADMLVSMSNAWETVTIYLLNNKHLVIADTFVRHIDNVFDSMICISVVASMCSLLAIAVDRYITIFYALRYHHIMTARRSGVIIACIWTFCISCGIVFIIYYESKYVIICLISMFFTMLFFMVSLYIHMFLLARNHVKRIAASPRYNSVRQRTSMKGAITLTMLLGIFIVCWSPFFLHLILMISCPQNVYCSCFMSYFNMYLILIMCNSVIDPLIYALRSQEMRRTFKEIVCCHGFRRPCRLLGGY

[3] = molecular target: T1, mouse melanocortin-1 receptor; assay: cell-based or functional assay; remark: listed apart in the source
[4] = molecular target: T1, mouse melanocortin-1 receptor; assay: cell-based or functional assay; remark: listed apart in the source
[5] = molecular target: T3, mouse melanocortin-3 receptor (mouse, UniProt P33033 1-323); assay: cell-based or functional assay
T3 sequence (P33033 whole entry): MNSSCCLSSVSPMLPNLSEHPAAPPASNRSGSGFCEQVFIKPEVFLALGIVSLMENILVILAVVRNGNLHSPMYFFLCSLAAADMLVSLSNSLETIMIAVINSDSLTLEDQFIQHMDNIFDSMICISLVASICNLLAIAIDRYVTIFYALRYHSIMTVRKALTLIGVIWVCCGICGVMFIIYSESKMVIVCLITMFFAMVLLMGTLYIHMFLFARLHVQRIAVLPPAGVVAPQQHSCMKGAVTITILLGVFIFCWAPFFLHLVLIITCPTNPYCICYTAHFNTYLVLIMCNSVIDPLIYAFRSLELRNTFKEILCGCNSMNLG

[6] = molecular target: T2, mouse melanocortin-5 receptor; assay: cell-based or functional assay; remark: listed apart in the source
[7] = molecular target: T4, human melanocortin-4 receptor (human, UniProt P32245 1-332); assay: cell-based or functional assay
T4 sequence (P32245 whole entry): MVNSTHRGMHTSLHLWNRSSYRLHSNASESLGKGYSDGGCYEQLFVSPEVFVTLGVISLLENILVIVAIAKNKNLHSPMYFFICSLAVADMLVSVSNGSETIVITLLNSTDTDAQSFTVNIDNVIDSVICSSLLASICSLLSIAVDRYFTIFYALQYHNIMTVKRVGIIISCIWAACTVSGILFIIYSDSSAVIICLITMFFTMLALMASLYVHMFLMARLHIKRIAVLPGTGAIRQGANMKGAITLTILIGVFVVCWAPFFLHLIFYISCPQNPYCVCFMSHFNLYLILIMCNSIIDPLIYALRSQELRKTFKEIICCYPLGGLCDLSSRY

[8] = molecular target: T1, mouse melanocortin-1 receptor; assay: cell-based or functional assay; remark: listed apart in the source
[9] = molecular target: T3, mouse melanocortin-3 receptor; assay: cell-based or functional assay; remark: listed apart in the source
[10] = molecular target: T2, mouse melanocortin-5 receptor; assay: cell-based or functional assay; remark: listed apart in the source
[11] = molecular target: mouse melanocortin-4 receptor (mouse, UniProt P56450 1-332); assay: cell-based or functional assay
mouse melanocortin-4 receptor, sequence (P56450 whole entry): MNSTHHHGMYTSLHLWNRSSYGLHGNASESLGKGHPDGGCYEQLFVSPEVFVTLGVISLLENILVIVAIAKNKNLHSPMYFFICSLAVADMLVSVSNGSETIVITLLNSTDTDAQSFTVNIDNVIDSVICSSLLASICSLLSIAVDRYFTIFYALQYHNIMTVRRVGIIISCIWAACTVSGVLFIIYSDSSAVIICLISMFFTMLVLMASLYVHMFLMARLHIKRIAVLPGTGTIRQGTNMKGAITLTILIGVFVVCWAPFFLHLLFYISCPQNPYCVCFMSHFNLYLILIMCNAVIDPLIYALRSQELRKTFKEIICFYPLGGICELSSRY

[12] = molecular target: T4, human melanocortin-4 receptor; assay: displacement of 125I-AGRP, HEK293 cells expressing hMC4R
Method: Competitive binding affinity experiments were performed on HEK-293 cells stably expressing the wildtype hMC4R. […] The assay media was carefully aspirated and cells were washed once with assay buffer. Cell were lysed with 500 μL 0.1 M NaOH and 500 μL 1% Triton X-100 for a minimum of 10 min. […] All experiments were performed with duplicate data points and in at least two independent experimental replicates. […] Concentration-response curves and IC₅₀ values were generated and analyzed by the PRISM program (version 4.0. GraphPad Inc.) by a nonlinear regression method. The standard error of the mean (SEM) was derived from the IC₅₀ values from at least two independent experimental replicates.

[13] = molecular target: T2, mouse melanocortin-5 receptor; assay: cell-based or functional assay; remark: listed apart in the source

T1 sequence (Q01727 whole entry): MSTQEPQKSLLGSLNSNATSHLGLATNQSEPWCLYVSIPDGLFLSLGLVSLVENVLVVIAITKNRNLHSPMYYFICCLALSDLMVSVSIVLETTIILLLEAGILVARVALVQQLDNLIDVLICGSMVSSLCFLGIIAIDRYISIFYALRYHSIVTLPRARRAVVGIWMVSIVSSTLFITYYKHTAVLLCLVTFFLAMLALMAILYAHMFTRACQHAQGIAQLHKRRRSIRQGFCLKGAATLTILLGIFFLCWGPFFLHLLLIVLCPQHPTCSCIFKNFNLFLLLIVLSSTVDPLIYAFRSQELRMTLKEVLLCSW

**Q.** Which results are given for cyclo(PRFFNAG[dP]) [c[Pro-Arg-Phe-Phe-Asn-Ala-Gly-DPro]]?
**A.** % activation at 100 µM (cAMP AlphaScreen) [1]: 60%; inverse agonist, % change from basal cAMP at 100 µM [2]: -25%

**Q.** cyclo(PRFFNA[Nle][dP]) [c[Pro-Arg-Phe-Phe-Asn-Ala-Nle-DPro]] was tested. Which “partial agonist, % receptor stimulation” value [3] did it give?
**A.** 50%

**Q.** And the “inverse agonist, % change from basal cAMP at 100 µM” value (“inverse agonist, % change” below) [2]?
**A.** -35%

**Q.** How did the “% activation at 100 µM (cAMP AlphaScreen)” value [1] turn out when cyclo(PRFFNAS[dP]) [c[Pro-Arg-Phe-Phe-Asn-Ala-Ser-DPro]] was run?
**A.** 35%

**Q.** What about the “inverse agonist, % change” value [2] of the same binder?
**A.** -55%

**Q.** Which results are given for PRFFXAFP (head-to-tail cyclic; DArg at 2; DPhe at 3 and 4; Dap at 5; DPro at 8) [c[Pro-DArg-DPhe-DPhe-Dap-Ala-Phe-DPro]]?
**A.** agonist EC50 (cAMP AlphaScreen) [4]: 2200 nM; partial agonist efficacy, % of NDP-MSH [4]: 60%; agonist EC50 (cAMP AlphaScreen) [5]: > 100000 nM; antagonist pA2 (Schild, agonist NDP-MSH) [5]: < 5.5; inverse agonist, % change from basal cAMP at 100 µM [6]: -15%

**Q.** For PRFFXAFP (head-to-tail cyclic; Abu at 5; DPro at 8) [c[Pro-Arg-Phe-Phe-Abu-Ala-Phe-DPro]], which “inverse agonist, % decrease from basal signal” value [7] is on record?
**A.** -15%

**Q.** And the “agonist EC50 (cAMP AlphaScreen)” value [8]?
**A.** > 100000 nM

**Q.** And the “agonist EC50 (cAMP AlphaScreen)” value [9]?
**A.** > 100000 nM

**Q.** And the “antagonist pA2 (Schild, agonist NDP-MSH)” value [9]?
**A.** < 5.5

**Q.** What about the “inverse agonist apparent potency” value [10] of the same binder?
**A.** 160 nM

**Q.** And the “inverse agonist, % decrease from basal cAMP” value [10]?
**A.** -20%

**Q.** For cyclo(PRFFNAY[dP]) [c[Pro-Arg-Phe-Phe-Asn-Ala-Tyr-DPro]], which “inverse agonist, % change” value [2] is on record?
**A.** -40%

**Q.** What does the source list for cyclo(PRFFAAF[dP]) [c[Pro-Arg-Phe-Phe-Ala-Ala-Phe-DPro]]?
**A.** inverse agonist, % decrease from basal signal [7]: -35%; agonist EC50 (cAMP AlphaScreen) [8]: > 100000 nM; agonist EC50 (cAMP AlphaScreen) [9]: > 100000 nM; antagonist pA2 (Schild, agonist NDP-MSH) [9]: < 5.5; agonist EC50 (cAMP AlphaScreen) [11]: > 100000 nM; antagonist pA2 (Schild, agonist NDP-MSH) [11]: 7.32; inverse agonist apparent potency [10]: 250 nM; inverse agonist, % decrease from basal cAMP [10]: -20%

**Q.** Which “inverse agonist, % decrease from basal signal” value [7] does the source give for cyclo(PRFFNAF[dP]) (also: assayed as TFA salt) [c[Pro-Arg-Phe-Phe-Asn-Ala-Phe-DPro]] here?
**A.** -30%

**Q.** What about the “agonist EC50 (cAMP AlphaScreen)” value [3] of the same binder?
**A.** 2800 nM

**Q.** What about the “partial agonist, % receptor stimulation” value [3] of the same binder?
**A.** 80%

**Q.** And the “% maximal NDP-MSH response at 100 µM (cAMP AlphaScreen)” value [8]?
**A.** 25%

**Q.** Which results are given for cyclo(PRFFSAF[dP]) [c[Pro-Arg-Phe-Phe-Ser-Ala-Phe-DPro]]?
**A.** inverse agonist, % decrease from basal signal [7]: -25%; agonist EC50 (cAMP AlphaScreen) [8]: > 100000 nM; agonist EC50 (cAMP AlphaScreen) [9]: > 100000 nM; antagonist pA2 (Schild, agonist NDP-MSH) [9]: 5.9; agonist EC50 (cAMP AlphaScreen) [11]: > 100000 nM; antagonist pA2 (Schild, agonist NDP-MSH) [11]: 7.7; inverse agonist apparent potency [10]: 140 nM; inverse agonist, % decrease from basal cAMP [10]: -25%

**Q.** PRFFNAXP (head-to-tail cyclic; Cha at 7; DPro at 8) [c[Pro-Arg-Phe-Phe-Asn-Ala-Cha-DPro]] was tested. Which “inverse agonist apparent potency” value [2] did it give?
**A.** 780 nM

**Q.** What about the “inverse agonist, % decrease from basal cAMP” value [2] of the same binder?
**A.** -20%

B1: hAGRP(86-132) (ligand, human, UniProt O00253 86-132, looked up)
chain: RCVRLHESCLGQQVPCCDPCATCYCRFFNAFCYCRKLGTAMNPCSRT
notes: range 86-132; also called C-terminal domain of AGRP
**Q.** Which results are given for B1?
**A.** antagonist pA2 (Schild, agonist NDP-MSH) [7]: 8.8; inverse agonist apparent potency (EC50) [7]: 2.4 nM; inverse agonist, % decrease from basal signal [7]: -35%; IC50 [12]: 12 nM; antagonist pA2 (Schild, agonist NDP-MSH) [9]: 8.7; antagonist pA2 (Schild, agonist NDP-MSH) [11]: 8.7

**Q.** cyclo(PRFFNAL[dP]) [c[Pro-Arg-Phe-Phe-Asn-Ala-Leu-DPro]] was tested. Which “inverse agonist, % change” value [2] did it give?
**A.** -35%

**Q.** Which results are given for PRFFXAFP (head-to-tail cyclic; DPhe at 3 and 4; Dap at 5; DPro at 8) [c[Pro-Arg-DPhe-DPhe-Dap-Ala-Phe-DPro]]?
**A.** agonist EC50 (cAMP AlphaScreen) [4]: 700 nM; agonist EC50 (cAMP AlphaScreen) [5]: > 100000 nM; antagonist pA2 (Schild, agonist NDP-MSH) [5]: 5.7; agonist EC50 (cAMP AlphaScreen) [6]: > 100000 nM

**Q.** How did the “inverse agonist, % decrease from basal signal” value [7] turn out when PRFFXAFP (head-to-tail cyclic; Dap at 5; DPro at 8) [c[Pro-Arg-Phe-Phe-Dap-Ala-Phe-DPro]] was run?
**A.** -50%

**Q.** And the “agonist EC50 (cAMP AlphaScreen)” value [3]?
**A.** 1600 nM

**Q.** And the “partial agonist, % receptor stimulation” value [3]?
**A.** 80%

**Q.** And the “EC50 (cAMP AlphaScreen, inverse agonist)” value [13]?
**A.** > 100000 nM

**Q.** And the “% maximal NDP-MSH response at 100 µM (cAMP AlphaScreen)” value [8]?
**A.** 30%

**Q.** And the “agonist EC50 (cAMP AlphaScreen)” value [9]?
**A.** > 100000 nM

**Q.** What about the “antagonist pA2 (Schild, agonist NDP-MSH)” value [9] of the same binder?
**A.** 6.52

**Q.** What about the “inverse agonist apparent potency” value [10] of the same binder?
**A.** 60 nM

**Q.** And the “inverse agonist, % decrease from basal cAMP” value [10]?
**A.** -15%

**Q.** With PRFFXAFP (head-to-tail cyclic; DPhe at 4; Dap at 5; DPro at 8) [c[Pro-Arg-Phe-DPhe-Dap-Ala-Phe-DPro]] as the binder, how does the “agonist EC50 (cAMP AlphaScreen)” value [4] read?
**A.** 800 nM

**Q.** What about the “partial agonist efficacy, % of NDP-MSH” value [4] of the same binder?
**A.** 75%

**Q.** And the “agonist EC50 (cAMP AlphaScreen)” value [5]?
**A.** > 100000 nM

**Q.** What about the “antagonist pA2 (Schild, agonist NDP-MSH)” value [5] of the same binder?
**A.** < 5.5

**Q.** And the “agonist EC50 (cAMP AlphaScreen)” value [6]?
**A.** > 100000 nM

**Q.** How did the “inverse agonist, % decrease from basal signal” value [7] turn out when PRFFXAFP (head-to-tail cyclic; DDap at 5; DPro at 8) [c[Pro-Arg-Phe-Phe-DDap-Ala-Phe-DPro]] was run?
**A.** -30%

**Q.** And the “agonist EC50 (cAMP AlphaScreen)” value [8]?
**A.** > 100000 nM

**Q.** And the “agonist EC50 (cAMP AlphaScreen)” value [9]?
**A.** > 100000 nM

**Q.** And the “antagonist pA2 (Schild, agonist NDP-MSH)” value [9]?
**A.** 6.7

**Q.** What about the “inverse agonist apparent potency” value [10] of the same binder?
**A.** 110 nM

**Q.** What about the “inverse agonist, % decrease from basal cAMP” value [10] of the same binder?
**A.** -10%

**Q.** With cyclo(PRFFNAK[dP]) [c[Pro-Arg-Phe-Phe-Asn-Ala-Lys-DPro]] as the binder, how does the “inverse agonist, % change” value [2] read?
**A.** -40%

**Q.** Which “agonist EC50 (cAMP AlphaScreen)” value [4] does the source give for PRFFXAFP (head-to-tail cyclic; DArg at 2; DPhe at 3; Dap at 5; DPro at 8) [c[Pro-DArg-DPhe-Phe-Dap-Ala-Phe-DPro]] here?
**A.** 800 nM

**Q.** And the “partial agonist efficacy, % of NDP-MSH” value [4]?
**A.** 70%

**Q.** And the “agonist EC50 (cAMP AlphaScreen)” value [5]?
**A.** > 100000 nM

**Q.** What about the “antagonist pA2 (Schild, agonist NDP-MSH)” value [5] of the same binder?
**A.** 6

**Q.** And the “inverse agonist, % change” value [6]?
**A.** -30%

**Q.** Which “inverse agonist apparent potency” value [2] does the source give for cyclo(PRFFNAW[dP]) [c[Pro-Arg-Phe-Phe-Asn-Ala-Trp-DPro]] here?
**A.** 150 nM

**Q.** And the “inverse agonist, % decrease from basal cAMP” value [2]?
**A.** -20%

**Q.** Which results are given for cyclo(P[dR]F[dF]NAF[dP]) [c[Pro-DArg-Phe-DPhe-Asn-Ala-Phe-DPro]]?
**A.** agonist EC50 (cAMP AlphaScreen) [4]: 1200 nM; % maximal NDP-MSH response at 100 µM (cAMP AlphaScreen) [5]: 35%

**Q.** How did the “agonist EC50 (cAMP AlphaScreen)” value [4] turn out when PRFFXAFP (head-to-tail cyclic; DArg at 2; DPhe at 4; Dap at 5; DPro at 8) [c[Pro-DArg-Phe-DPhe-Dap-Ala-Phe-DPro]] was run?
**A.** 450 nM

**Q.** What about the “partial agonist efficacy, % of NDP-MSH” value [4] of the same binder?
**A.** 70%

**Q.** And the “agonist EC50 (cAMP AlphaScreen)” value [5]?
**A.** > 100000 nM

**Q.** What about the “antagonist pA2 (Schild, agonist NDP-MSH)” value [5] of the same binder?
**A.** 5.7

**Q.** And the “inverse agonist, % change” value [6]?
**A.** -20%

**Q.** What does the source list for cyclo(PRFFNA[hPhe][dP]) [c[Pro-Arg-Phe-Phe-Asn-Ala-hPhe-DPro]]?
**A.** inverse agonist apparent potency [2]: 290 nM; inverse agonist, % decrease from basal cAMP [2]: -20%
